Experimental findings from PMC9360449, “Programmable RNA targeting by bacterial Argonaute nucleases with unconventional guide binding and cleavage specificity” are described below.

The test system of series [1] is PnyAgo WT (Pedobacter nyackensis). As to the kind of experiment: filter binding. The following applies: 10 mM Tris-HCl pH 7.9, 100 mM NaCl, 5 mM MgCl2 (or none), 5% glycerol, 100 ug/ml BSA, 37 C.
The test system is the same in series [2]. As to the kind of experiment: competition. The following applies: filter binding, 100 nM pAgo; 5'-OH; 10 mM Tris-HCl pH 7.9, 100 mM NaCl, 5 mM MgCl2 (or none), 5% glycerol, 100 ug/ml BSA, 37 C.
Series [3] deals with T1, PliAgo WT (Pseudooceanicola lipolyticus, UniProt A0A2M8J4C7 1-789).
T1 sequence: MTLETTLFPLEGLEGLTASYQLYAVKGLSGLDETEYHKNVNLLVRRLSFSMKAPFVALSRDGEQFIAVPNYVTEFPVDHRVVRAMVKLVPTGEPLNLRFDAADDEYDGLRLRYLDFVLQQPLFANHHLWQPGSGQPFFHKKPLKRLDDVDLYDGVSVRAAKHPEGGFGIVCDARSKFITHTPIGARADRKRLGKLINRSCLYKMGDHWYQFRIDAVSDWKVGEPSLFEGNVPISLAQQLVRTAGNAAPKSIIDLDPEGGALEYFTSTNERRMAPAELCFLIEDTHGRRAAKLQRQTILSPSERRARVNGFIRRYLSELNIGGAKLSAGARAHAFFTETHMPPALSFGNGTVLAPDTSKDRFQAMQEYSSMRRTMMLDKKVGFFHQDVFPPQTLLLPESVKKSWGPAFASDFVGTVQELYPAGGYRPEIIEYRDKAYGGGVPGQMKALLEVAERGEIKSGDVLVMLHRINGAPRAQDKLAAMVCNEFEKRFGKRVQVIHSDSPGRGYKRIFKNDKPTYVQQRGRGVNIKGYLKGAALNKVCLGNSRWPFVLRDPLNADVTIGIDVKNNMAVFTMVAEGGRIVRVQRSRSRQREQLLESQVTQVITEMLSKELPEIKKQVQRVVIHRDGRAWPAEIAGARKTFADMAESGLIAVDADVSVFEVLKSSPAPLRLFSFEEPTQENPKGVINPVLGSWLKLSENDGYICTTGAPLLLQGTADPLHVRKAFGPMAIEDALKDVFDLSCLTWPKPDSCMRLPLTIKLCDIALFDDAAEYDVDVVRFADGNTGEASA
As to the kind of experiment: X-ray crystallography; no Mg2+. The following applies: protein: recombinant; tags: N-His6; single strand.

The target in series [4] is T1, PliAgo WT. Nature of the series: X-ray crystallography; 10 mM Tris-HCl pH 7.9, 100 mM NaCl, 5 mM MgCl2 (or none), 5% glycerol, 100 ug/ml BSA, 37 C. The following applies: protein: recombinant; tags: N-His6; single strand.

Bounds are passed on as bounds.

Regarding “GTTAGACTTTAAGTCAAT / UUUAUCAAAAAGAGUAUUGACUUAAAGUCUAACCUAUAGGAUACUUACAG [guide DNA / G-target-RNA]”, the Kd in series [1] (guide-loaded, 5'-phosphate on guide) is 7.5 nM.
Turning to “GTTAGACTTTAAGTCAAT [5'-OH guide DNA (G-guide)]”, the binding signal (fold Kd increase vs 5'-P guide) in series [2] worked out at 12.
“GTTAGACTTTAAGTCAAT [5'-P guide DNA (G-guide)]”: the Kd in series [1] (5 mM Mg2+, 5'-phosphate) is 31 nM; in series [1] (no Mg2+, 5'-phosphate) it was 390 nM.
“GUUAGACUUUAAGUCAAU [guide RNA (G-guide-RNA)]”: the equilibrium dissociation constant (Kd) in series [1] (5 mM Mg2+, 5'-phosphate) was above 1000 nM.

B1: 3D-guide P-gDNA (ssDNA)
DNA: TTACTGCACAGGTGACGA
modifications: 5'-phosphate
For the molecule B1, the binding result in the series with PliAgo WT [3] is recorded as “binds”.

B2: 3D-guide OH-gDNA (ssDNA)
DNA: TTACTGCACAGGTGACGA
modifications: 5'-OH
As for B2, the binding result in the series with PliAgo WT [4] is reported as “binds”.

The term Kd denotes the equilibrium constant for the complex coming apart. A low value points to a tighter complex.
